From paper PMC3622683, “Purification, Gene Cloning, and Biochemical Characterization of a β-Glucosidase Capable of Hydrolyzing Sesaminol Triglucoside from Paenibacillus sp. KB0549” (PLoS ONE, 2013)

Experiments:
Settings in all cases: pH 7.0, 37°C, potassium phosphate
[1] = substrate: O=[N+]([O-])c1ccc(O[C@@H]2OC[C@@H](O)[C@H](O)[C@H]2O)cc1; assay: purified protein; type: biochemical, Paenibacillus relictisesami
[2] = substrate: O=[N+]([O-])c1ccc(O[C@@H]2O[C@H](CO)[C@@H](O[C@@H]3O[C@H](CO)[C@@H](O)[C@H](O)[C@H]3O)[C@H](O)[C@H]2O)cc1; assay: purified protein; type: biochemical, Paenibacillus relictisesami
[3] = substrate: O=[N+]([O-])c1ccc(O[C@@H]2O[C@H](CO)[C@H](O)[C@H](O)[C@H]2O)cc1; assay: purified protein
[4] = substrate: O=[N+]([O-])c1ccc(O[C@@H]2O[C@H](CO)[C@@H](O)[C@H](O)[C@H]2O)cc1; assay: purified protein
[5] = substrate: OC[C@H]1O[C@@H](OC[C@H]2O[C@@H](Oc3cc4c(cc3[C@H]3OC[C@H]5[C@@H]3CO[C@@H]5c3ccc5c(c3)OCO5)OCO4)[C@H](O[C@@H]3O[C@H](CO)[C@@H](O)[C@H](O)[C@H]3O)[C@@H](O)[C@@H]2O)[C@H](O)[C@@H](O)[C@@H]1O; assay: HPLC of STG hydrolysis, initial velocities; type: biochemical, Paenibacillus relictisesami
Protocol: HPLC of STG hydrolysis, initial velocities on rPSTG (recombinant PSTG, STG-hydrolyzing β-glucosidase) | k cat and K m values of rPSTG for hydrolysis of STG were determined

B1: rPSTG (recombinant PSTG, STG-hydrolyzing β-glucosidase) (Paenibacillus relictisesami) (protein)
chain: MSERRDLKALISQMTLEEKASLCTGRDTWHTQPIERLGIPSVMMTDGPHGLRKQKAASDHLGLFDSVPSTCFPSAVGVASSWNRDLIERMGQALGKECQAENVAVLLGPGANIKRSPLCGRNFEYFSEDPYLSSEMAAHHIMGVQSQGVGTSLKHFAANNQEYRRMTSDSVVNERTLREIYLTSFEGAVKKARPWTVMCSYNKVNGEYAAENERLLTGILKQEWGHEGFVVSDWGAVNDRVKSLAAGLELEMPHEGAGTKQIIEAVESGQLAEEKLDLAVERLLTVIFRSVDQHKEGAVYDPEAHHKLAREIAAESMVLLKNEDRILPLKREGTIAVIGELAKVPRYQGSGSSQIKPTRLDDIVFELAASAGEHARVTYTQGYDLKSDDINAVLTEEALQAAKEASVAVLFAGLPKRYESEGFDRKHMRMPDNQIALIEAVAAVQPNLVVVLCNGAPIEMPWLPQAKAVLEAYLGGQALGGAIADLLFGDANPSGKLAETFPVQLSDNPSFLNFPGEGDRVEYREGLFVGYRYYDKKQLRPLFPFGHGLSYTTFAYSNLSVDKKEILDTETLKVCVNVKNTGERAGKEIVQLYVRDVESSVIRPLKELKGFDKVFLAPGEEKTLTFELGKRSFAYYDPSIKDWMVETGAFEILIGRSSQDIVLAETVMVRSTVSRKIVYHRNSTVADLMLTEKGAAFAQKLRGMIPFGETVGEEYAEMLEAFKESVPLRGLISFSAGRFTEEDLSKLLEYLNG
notes: full-length 753 aa, 83,298 Da, no signal peptide; expressed from pDEST17 in E. coli BL21-AI, HisTrap purified (tag cleavage not mentioned); likely tetramer, 310 kDa; GH3
- Km [1]: 35700 ± 12200 µM
- kcat [1]: 69 s⁻¹
- kcat/Km [1]: 1930 M⁻¹ s⁻¹
- Km [2]: 230 ± 40 µM
- kcat [2]: 0.47 ± 0.03 s⁻¹
- kcat/Km [2]: 2040 M⁻¹ s⁻¹
- Km [3]: 29000 ± 7000 µM
- kcat [3]: 2.06 s⁻¹
- kcat/Km [3]: 71 M⁻¹ s⁻¹
- Km [4]: 100 ± 10 µM
- kcat [4]: 44.3 s⁻¹
- kcat/Km [4]: 426000 M⁻¹ s⁻¹
- Km [5]: 1400 ± 400 µM
- kcat [5]: 9.3 ± 0.8 s⁻¹
